According to publication PMC8044227, “Cardiolipin enhances the enzymatic activity of cytochrome bd and cytochrome bo3 solubilized in dodecyl-maltoside” (Scientific Reports, 2021):

Substrate: COc1c(O)c(C)c(CC=C(C)C)c(O)c1OC
Test: O2 consumption, Clark-type electrode
Assay type: biochemical, Escherichia coli
Conditions: no cardiolipin, 0.025% DDM, 50 mM MOPS, 100 mM NaCl, pH 7.5, 37 °C, 10 mM DTT

Row | Protein | Km [µM]
1 | cytochrome bd (E. coli) (Escherichia coli K-12) (protein, CydABX complex, Strep-tag, expressed in E. coli MB43, streptactin-purified in DDM) MLDIVELSRLQFALTAMYHFLFVPLTLGMAFLLAIMETVYVLSGKQIYKDMTKFWGKLFGINFALGVATGLTMEFQFGTNWSYYSHYVGDIFGAPLAIEGLMAFFLESTFVGLFFFGWDRLGKVQHMCVTWLVALGSNLSALWILVANGWMQNPIASDFNFETMRMEMVSFSELVLNPVAQVKFVHTVASGYVTGAMFILGISAWYMLKGRDFAFAKRSFAIAASFGMAAVLSVIVLGDESGYEMGDVQKTKLAAIEAEWETQPAPAAFTLFGIPDQEEETNKFAIQIPYALGIIATRSVDTPVIGLKELMVQHEERIRNGMKAYSLLEQLRSGSTDQAVRDQFNSMKKDLGYGLLLKRYTPNVADATEAQIQQATKDSIPRVAPLYFAFRIMVACGFLLLAIIALSFWSVIRNRIGEKKWLLRAALYGIPLPWIAVEAGWFVAEYGRQPWAIGEVLPTAVANSSLTAGDLIFSMVLICGLYTLFLVAELFLMFKFARLGPSSLKTGRYHFEQSSTTTQPAR | 95 ± 16
2 | cytochrome bo3 (E. coli) (Escherichia coli K-12) (protein, His-tagged complex overexpressed in E. coli GO105/pJRhisA, Ni-Sepharose-purified in DDM) MFGKLSLDAVPFHEPIVMVTIAGIILGGLALVGLITYFGKWTYLWKEWLTSVDHKRLGIMYIIVAIVMLLRGFADAIMMRSQQALASAGEAGFLPPHHYDQIFTAHGVIMIFFVAMPFVIGLMNLVVPLQIGARDVAFPFLNNLSFWFTVVGVILVNVSLGVGEFAQTGWLAYPPLSGIEYSPGVGVDYWIWSLQLSGIGTTLTGINFFVTILKMRAPGMTMFKMPVFTWASLCANVLIIASFPILTVTVALLTLDRYLGTHFFTNDMGGNMMMYINLIWAWGHPEVYILILPVFGVFSEIAATFSRKRLFGYTSLVWATVCITVLSFIVWLHHFFTMGAGANVNAFFGITTMIIAIPTGVKIFNWLFTMYQGRIVFHSAMLWTIGFIVTFSVGGMTGVLLAVPGADFVLHNSLFLIAHFHNVIIGGVVFGCFAGMTYWWPKAFGFKLNETWGKRAFWFWIIGFFVAFMPLYALGFMGMTRRLSQQIDPQFHTMLMIAASGAVLIALGILCLVIQMYVSIRDRDQNRDLTGDPWGGRTLEWATSSPPPFYNFAVVPHVHERDAFWEMKEKGEAYKKPDHYEEIHMPKNSGAGIVIAAFSTIFGFAMIWHIWWLAIVGFAGMIITWIVKSFDEDVDYYVPVAEIEKLENQHFDEITKAGLKNGN | 56 ± 13
